Test results as given in patent publication US20240009235A1 (published 2024).

Target: T1, Bob1 (gene POU2AF1) peptide on HLA-B*35:01 (human)
T1 peptide: APAPTAVVL
Assay: multimer staining

B1: TCR 1C5.6 (TCR, V domains shown)
Valpha: AQSVTQLDSQVPVFEEAPVELRCNYSSSVSVYLFWYVQYPNQGLQLLLKYLSGSTLVESINGFEAEFNKSQTSFHLRKPSVHISDTAEYFCAVKVSNAGGTSYGKLTFGQGTILTVHP
Vbeta: DGGITQSPKYLFRKEGQNVTLSCEQNLNHDAMYWYRQDPGQGLRLIYYSQIVNDFQKGDIAEGYSVSREKKESFPLTVTSAQKNPTAFYLCASSIAQGADTQYFGPGTRLTVL
binding result: no recognition
